We go through eleven molecules from patent EP0647275B2 (Mount Sinai School of Medicine, priority 1992, dated 1994).

Non-standard residues stand in square brackets, D forms with d. Residues, ends and D or L forms follow the SMILES beside them. d(pGlu) = O=C1CC[C@H](C(=O)O)N1; pGlu = O=C1CC[C@@H](C(=O)O)N1

Experiment [1] deals with mouse gonadotropin-releasing hormone receptor (GnRH-R), clone WZ25 (mouse). Briefly: cell-based or functional assay.
Experiment [2] concerns the target T1, mouse GnRH-R (Mus musculus, UniProt Q01776).
T1 construct: The longest open reading frame encodes a 327 amino acid protein; expressed in transfected cells; host or cells: Xenopus laevis oocytes injected with capped synthetic WZ25 RNA transcript
T1 sequence (Q01776 1-327): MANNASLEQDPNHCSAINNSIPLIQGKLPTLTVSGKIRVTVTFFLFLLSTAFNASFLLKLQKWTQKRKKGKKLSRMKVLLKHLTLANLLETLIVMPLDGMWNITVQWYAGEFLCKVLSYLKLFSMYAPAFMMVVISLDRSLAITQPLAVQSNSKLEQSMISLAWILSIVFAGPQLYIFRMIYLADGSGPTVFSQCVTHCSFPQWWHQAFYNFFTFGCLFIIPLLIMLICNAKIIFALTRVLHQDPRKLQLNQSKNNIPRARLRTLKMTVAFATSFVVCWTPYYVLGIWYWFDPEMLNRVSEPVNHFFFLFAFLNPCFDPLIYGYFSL
Briefly: Electrophysiological response of Xenopus oocytes injected with WZ25 RNA transcript (two-electrode voltage clamp). It is filed as cell-based. Conditions: for response of RNA-injected oocytes to agonist: buserelin 100 nM. On the procedure: Adult female Xenopus laevis (Nasco, Ft. Atkinson, WI) were kept at 18-20°C and a day/night cycle of 15h/9h. […] Peptide ligands were diluted in the perfusion buffer and introduced into the bath. The clamp current was recorded using a chart recorder. Reversal potentials were determined by continuous ramping from -70 to +10 mV over 2 seconds with and without agonist through an IBM PC/AT system using the TL-1 interface and pCLAMP software from Axon Instruments (Burlingame, CA).
WZ25 in pBluescript II SK+ (Stratagene) was linearized and capped RNA transcript synthesized using T3 RNA polymerase (Stratagene).
On the technique in general: Two-electrode voltage clamp holds a large cell at a set potential and records current.

Experiment [3] concerns the target human gonadotropin-releasing hormone receptor (GnRH-R), clone LC27-4 (human). The experiment in a line: cell-based or functional assay.
The target is the same in experiment [4]. Briefly: calculated from the IC50 of inhibition of GnRH-stimulated inositol phosphate production in COS-1 cells transfected with human GnRH-R.
The target is the same in experiment [5]. The experiment in a line: displacement of 125I-GnRH-A, membranes of COS-1 cells transfected with human GnRH-R. In general terms: In a radioligand displacement assay an active substance lowers the binding of a labelled ligand.
Experiment [6] deals with T2, human GnRHR (Homo sapiens, UniProt P30968).
T2 construct: The human GnRH-R cDNA was subcloned into an expression vector, pSV2A, containing an SV40 early promoter; expressed in transfected cells; host or cells: COS-1 cells, transient DEAE-dextran transfection with pSV2A-human GnRH-R
T2 sequence (P30968 1-328): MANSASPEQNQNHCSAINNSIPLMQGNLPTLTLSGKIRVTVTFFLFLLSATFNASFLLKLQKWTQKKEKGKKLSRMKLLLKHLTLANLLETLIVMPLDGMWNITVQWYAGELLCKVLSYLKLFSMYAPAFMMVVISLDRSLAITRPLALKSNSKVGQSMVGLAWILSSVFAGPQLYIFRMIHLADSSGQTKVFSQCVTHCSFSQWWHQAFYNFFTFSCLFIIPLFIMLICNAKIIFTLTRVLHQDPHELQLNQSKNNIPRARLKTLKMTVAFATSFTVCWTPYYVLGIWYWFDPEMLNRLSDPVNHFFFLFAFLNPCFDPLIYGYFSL
The experiment in a line: Electrophysiological response of Xenopus oocytes injected with LC27-4 RNA transcript. Conditions: 2 x 10^-7 M agonist; LC27-4 RNA-injected oocytes. It is filed as cell-based. As to the method:
Construct LC27-4 was linearized and capped RNA transcript synthesized using T3 RNA polymerase. Oocyte preparation and electrophysiology were performed as previously described (Sealfon et al., 1990, Mol. Endocrinol. 4:119-124). Cells were injected with 1-10 ng of synthetic transcript and electrophysiology recorded via two-electrode voltage clamp 48 hours later. All agonists and antagonists were applied at a concentration of 0.2 µM.

Experiment [7] deals with T1, mouse GnRH-R. Briefly: 125I-GnRH-A radioligand binding assay, membranes of WZ25 RNA-injected oocytes. Conditions: WZ25 RNA-injected oocyte membranes; read-out: Kd, displacement of 125I-GnRH-A. On the procedure:
For membrane preparation, 500 oocytes were each injected with 2.5 ng synthetic WZ25 RNA.

The target of the next experiment is T3, GnRH-R (Mus musculus, UniProt Q01776).
T3 construct: similar Kds of 4.5 and 2.9 nM in WZ25 RNA-injected oocyte membranes and αT3-1 cell membranes respectively; endogenous in cells; host or cells: αT3-1 mouse gonadotrope cell membranes, combined with membranes from uninjected oocytes
T3 sequence (Q01776 1-327): T1 sequence (Q01776 1-327)
The experiment in a line: 125I-GnRH-A radioligand binding assay, αT3-1 cell membranes. Conditions: read-out: Kd, displacement of 125I-GnRH-A.

Experiment [8] addresses T2, human GnRHR. Briefly: 125I-GnRH-A receptor binding, membranes of COS-1 cells transfected with pSV2A-human GnRH-R. Conditions: membranes from transfected COS-1 cells; read-out: dissociation constant, displacement of GnRH-A.
The target in experiment [9] is T2, human GnRHR. The experiment in a line: Inositol phosphate production in COS-1 cells transfected with pSV2A-human GnRH-R. Conditions: GnRH 10^-8 M; read-out: IC50, inhibition of GnRH-stimulated inositol phosphate production. It is filed as cell-based. As to the method: For studies on inositol phosphate production, 1.8 x 10^5 cells/well (12-well plates) were transfected with 1.5 µg DNA. Cells were assayed 48 hours after transfection.
Accumulation of [^3H]IP in the presence of LiCl was used as an index of inositol phosphate turnover. […] The reaction was terminated by the addition of a perchloric acid solution and phytic acid. After neutralizing with KOH, the inositol phosphates were separated on a Dowex ion exchange column and counted.

Experiment [10] concerns the target mouse gonadotropin-releasing hormone receptor (GnRH-R), clone WZ25 (mouse). Briefly: displacement of 125I-GnRH-A by GnRH-A, membranes of WZ25 RNA-injected oocytes.
Experiment [11] has the same target. Briefly: radioligand binding of 125I-GnRH-A to membranes of WZ25 RNA-injected oocytes; non-specific binding with 10^-6 M GnRH analogue was 662 cpm.
The target is the same in experiment [12]. The experiment in a line: displacement of 125I-GnRH-A by GnRH-A, alphaT3-1 cell membranes (endogenous mouse receptor).

Consider “GnRH antagonist [D-Phe^2.6,Pro^3]-GnRH (from UniProt P01148 24-92) (peptide)”, for which, in experiment [1], the reduction in the response to GnRH in the presence of equimolar antagonist, WZ25 RNA-injected oocytes came to 60% and the response to GnRH (clamp current) in the presence of equimolar antagonist, WZ25 RNA-injected oocytes came to 1880 nA.
In the case of `CC(C)C[C@H](NC(=O)[C@@H](Cc1ccccc1)NC(=O)[C@H](Cc1ccc(O)cc1)NC(=O)[C@H](CO)NC(=O)[C@@H]1CCCN1C(=O)[C@@H](Cc1ccccc1)NC(=O)[C@@H]1CCC(=O)N1)C(=O)N[C@@H](CCCNC(=N)N)C(=O)N1CCC[C@H]1C(=O)NCC(N)=O` [[D-Phe^2.6, Pro^3]GnRH, [D-Phe^2.6,Pro^3]-GnRH] ([pGlu][dF]PSY[dF]LRPG-NH2), the “response to GnRH in the presence of equimolar antagonist” value on mouse GnRH-R [2] (WZ25 RNA-injected oocytes, n=5) is recorded as 1880±551 nA. Besides, the “reduction in the response to GnRH” value at mouse GnRH-R [2] (equimolar antagonist, in comparison with the response to GnRH alone) was found to be 60%.
“antagonist 5: [D-pGlu^1,D-Phe^2,D-Trp^3,6]GnRH (from UniProt P01148 24-92) (peptide)”: in experiment [3], the IC50 of inhibition of GnRH-stimulated (10^-8 M) inositol phosphate production, transfected COS-1 cells worked out at 105 nM. Besides, the Kd was 3.6 nM in experiment [4] and 8.4 nM in [5].
Consider “D-Ser(But)^6,Pro^9-N-ethylamide GnRH [buserelin]”, for which the “response of RNA-injected oocytes to agonist” value with mouse GnRH-R [2] (WZ25 RNA-injected oocytes) is given as “elicited a depolarizing current”; with human GnRHR [6], “large depolarizing currents”.
In the case of `CCNC(=O)[C@@H]1CCCN1C(=O)[C@H](CCCNC(=N)N)NC(=O)[C@H](CC(C)C)N(C)C(=O)[C@@H](C)NC(=O)[C@H](Cc1ccc(O)cc1)NC(=O)[C@H](CO)NC(=O)[C@H](Cc1c[nH]c2ccccc12)NC(=O)[C@H](Cc1cnc[nH]1)NC(=O)[C@@H]1CCC(=O)N1` [GnRH-A, [D-Ala^6, NaMe-Leu^7, Pro^9-NHEt]GnRH], the Kd at mouse GnRH-R [7] was 4.5 nM; on GnRH-R, 2.9 nM; on human GnRHR [8] it was 0.97 nM.
In the case of `CC(C)C[C@H](NC(=O)[C@@H](Cc1c[nH]c2ccccc12)NC(=O)[C@H](Cc1ccc(O)cc1)NC(=O)[C@H](CO)NC(=O)[C@@H](Cc1c[nH]c2ccccc12)NC(=O)[C@@H](Cc1ccccc1)NC(=O)[C@H]1CCC(=O)N1)C(=O)N[C@@H](CCCNC(=N)N)C(=O)N1CCC[C@H]1C(=O)NCC(N)=O` [antagonist 5, [D-pGlu^1,D-Phe^2,D-Trp^3,6]GnRH] ([d(pGlu)][dF][dW]SY[dW]LRPG-NH2), at human GnRHR [9], the IC50 (in general, the concentration at which inhibition is half-maximal) is 105 nM. Also, the Kd at human GnRHR [8] came to 8.4 nM.
With “[Ac-D-NaI^1,D-α-4-ClPhe^2,D-Pal^3,D-Arg^6, D-Ala^10]GnRH [antagonist 13]”, the IC50 with human GnRHR [9] is 6.7 nM.
`CC(C)C[C@H](NC(=O)CNC(=O)[C@H](Cc1ccc(O)cc1)NC(=O)[C@H](CO)NC(=O)[C@H](Cc1c[nH]c2ccccc12)NC(=O)[C@H](Cc1cnc[nH]1)NC(=O)[C@@H]1CCC(=O)N1)C(=O)N[C@@H](CCCNC(=N)N)C(=O)N1CCC[C@H]1C(=O)NCC(N)=O` [GnRH, gonadotropin-releasing hormone]: the “response of RNA-injected oocytes to agonist” value is given as “large depolarizing response” at mouse GnRH-R [2] (WZ25 RNA-injected oocytes) and “large depolarizing currents” on human GnRHR [6]. Further, the “response to GnRH alone” value at mouse GnRH-R [2] (WZ25 RNA-injected oocytes, n=4) turned out to be 4756±1082 nA. Also, the “Vr of the current elicited by GnRH” value at mouse GnRH-R [2] (oocytes injected with WZ25 RNA transcript, n=7) is -27±0.79 mV.
In experiment [3], “gonadotropin-releasing hormone (GnRH) (from UniProt P01148 24-92) (peptide)” yielded an EC50 of inositol phosphate production, COS-1 cells transfected with human GnRH-R of 3 nM and an increase in phosphoinositol metabolism at maximal receptor stimulation, COS-1 cells transfected with human GnRH-R of 8 fold. In experiment [1], this molecule displayed a response to GnRH alone (clamp current) in WZ25 RNA-injected oocytes of 4760 nA.
Regarding “antagonist 13: [Ac-D-NaI^1,D-α-4-ClPhe^2,D-Pal^3,D-Arg^6, D-Ala^10]GnRH (from UniProt P01148 24-92) (peptide)”, the IC50 of inhibition of GnRH-stimulated (10^-8 M) inositol phosphate production, transfected COS-1 cells in experiment [3] came out at 6.7 nM. The Kd in experiment [4] is 0.21 nM.
Take “[D-Ala^6, NaMe-Leu^7, Pro^9-NHEt]GnRH (GnRH-A) (from UniProt P01148 24-92) (peptide)”: the Kd in [10] is 4.5 nM; in experiment [12] it was 2.9 nM; in [5] it was 0.97 nM. Also, the Bo (maximal binding) in experiment [11] came out at 1430 cpm.
